Reference: patent US20240132578A1

What was measured:
Assay in all cases: cell-based or functional assay
[1] = biological target: HIV-1 Env of isolate MGRM-AE-005 (pseudovirus) (HIV-1)
[2] = biological target: HIV-1 Env of isolate MGRM-AE-006 (pseudovirus) (HIV-1)
[3] = biological target: HIV-1 Env of isolate 98CN006 (HIV-1)
[4] = biological target: HIV-1 Env of isolate 92WR024 (pseudovirus) (HIV-1)
[5] = biological target: HIV-1 Env of isolate MGRM-Chronic-B-018 (HIV-1)
[6] = biological target: HIV-1 Env of isolate 92UG031 (pseudovirus) (HIV-1)
[7] = biological target: HIV-1 Env of isolate 93WR029 (pseudovirus) (HIV-1)
[8] = biological target: HIV-1 Env of isolate PVO.4 (HIV-1)
[9] = biological target: HIV-1 Env of isolate VLGCB3 (HIV-1)
[10] = biological target: HIV-1 Env of isolate MGRM-AE-004 (pseudovirus) (HIV-1)
[11] = biological target: HIV-1 Env of isolate MGRM-Chronic-B-023 (HIV-1)
[12] = biological target: HIV-1 Env of isolate 92UG037 (pseudovirus) (HIV-1)
[13] = biological target: HIV-1 Env of isolate QH0692.42 (HIV-1)
[14] = biological target: HIV-1 Env of isolate THR0.18 (HIV-1)
[15] = biological target: HIV-1 Env of isolate NL43 (HIV-1)
[16] = biological target: HIV-1 Env of isolate SC422661.8 (HIV-1)
[17] = biological target: HIV-1 Env of isolate MGRM-Chronic-B-017 (HIV-1)
[18] = biological target: HIV-1 Env of isolate JRCSF (HIV-1) (UniProt P20871)
[19] = biological target: HIV-1 Env of isolate MGRM-Chronic-B-024 (HIV-1)
[20] = biological target: HIV-1 Env of isolate 93IN905 (HIV-1)
[21] = biological target: HIV-1 Env of isolate SF162 (HIV-1) (UniProt P19550)
[22] = biological target: HIV-1 Env of isolate 93UG077 (pseudovirus) (HIV-1)
[23] = biological target: HIV-1 Env of isolate TRJ04551.58 (HIV-1)
[24] = biological target: HIV-1 Env of isolate 97ZA012 (HIV-1)
[25] = biological target: HIV-1 Env of isolate MGRM-C-020 (subtype C), on pseudovirus (HIV-1)
[26] = biological target: HIV-1 Env of isolate MGRM-Chronic-B-012 (HIV-1)
[27] = biological target: HIV-1 Env of isolate 92WR020 (pseudovirus) (HIV-1)
[28] = biological target: HIV-1 Env of isolate MGRM-Chronic-B-010 (HIV-1)
[29] = biological target: HIV-1 Env of isolate 98IN022 (HIV-1)
[30] = biological target: HIV-1 Env of isolate TRO.11 (HIV-1)
[31] = biological target: HIV-1 Env of isolate MGRM-Chronic-B-011 (HIV-1)
[32] = biological target: HIV-1 Env of isolate 92WR021 (pseudovirus) (HIV-1)
[33] = biological target: HIV-1 Env of isolate 94UG103 (pseudovirus) (HIV-1)
[34] = biological target: HIV-1 Env of isolate 93MW959 (HIV-1)
[35] = biological target: HIV-1 Env of isolate MGRM-Chronic-B-020 (HIV-1)

Substance: VRC01 (antibody)
- IC50 (µg/mL), single-round pseudovirus neutralization [1]: 0.029 µg/mL
- IC50 (µg/mL), single-round pseudovirus neutralization [2]: 4.65 µg/mL
- IC50 (µg/mL), pseudovirus neutralization [3]: 0.644 µg/mL
- IC50 (µg/mL), single-round pseudovirus neutralization [4]: 0.327 µg/mL
- IC50, pseudovirus neutralization [5]: 0.328 µg/mL
- IC50 (µg/mL), single-round pseudovirus neutralization [6]: 0.469 µg/mL
- IC50 (µg/mL), single-round pseudovirus neutralization [7]: 1.57 µg/mL
- IC50, pseudovirus neutralization [8]: 0.218 µg/mL
- IC50, pseudovirus neutralization [9]: 0.108 µg/mL
- IC50 (µg/mL), single-round pseudovirus neutralization [10]: 0.187 µg/mL
- IC50, pseudovirus neutralization [11]: 0.275 µg/mL
- IC50 (µg/mL), single-round pseudovirus neutralization [12]: 0.245 µg/mL
- IC50, pseudovirus neutralization [13]: 1.19 µg/mL
- IC50, pseudovirus neutralization [14]: 2.46 µg/mL
- IC50, pseudovirus neutralization [15]: 0.1 µg/mL
- IC50, pseudovirus neutralization [16]: 0.179 µg/mL
- IC50, pseudovirus neutralization [17]: 0.141 µg/mL
- IC50, pseudovirus neutralization [18]: 0.164 µg/mL
- IC50, pseudovirus neutralization [19]: 0.377 µg/mL
- IC50, pseudovirus neutralization [20]: 0.138 µg/mL
- IC50, pseudovirus neutralization [21]: 0.421 µg/mL
- IC50 (µg/mL), single-round pseudovirus neutralization [22]: 0.097 µg/mL
- IC50, pseudovirus neutralization [23]: 0.06 µg/mL
- IC50, pseudovirus neutralization [24]: 0.088 µg/mL
- IC50, single-round pseudovirus neutralization [25]: 0.396 µg/mL
- IC50, pseudovirus neutralization [26]: 1.03 µg/mL
- IC50 (µg/mL), single-round pseudovirus neutralization [27]: 0.13 µg/mL
- IC50, pseudovirus neutralization [28]: 0.156 µg/mL
- IC50, pseudovirus neutralization [29]: 0.342 µg/mL
- IC50, pseudovirus neutralization [30]: 0.186 µg/mL
- IC50, pseudovirus neutralization [31]: 0.587 µg/mL
- IC50 (µg/mL), single-round pseudovirus neutralization [32]: 0.066 µg/mL
- IC50 (µg/mL), single-round pseudovirus neutralization [33]: 0.285 µg/mL
- IC50, pseudovirus neutralization [34]: 0.053 µg/mL
- IC50, pseudovirus neutralization [35]: 0.424 µg/mL
